Measured values taken from patent US20070207967A1, “Peptide Inhibitors of Matrix Metalloproteinase Activity” (CTT CANCER TARGETING TECHNOLOGIES OY, priority 2004, published 2007).

Target: β2 integrin on THP-1 cells (human) (UniProt P05107)
Experiment: THP-1 cell binding to immobilized KIM127 (competitor) with C domain 50 µg/ml

Sequence of β2 integrin on THP-1 cells (human) (P05107 23-769): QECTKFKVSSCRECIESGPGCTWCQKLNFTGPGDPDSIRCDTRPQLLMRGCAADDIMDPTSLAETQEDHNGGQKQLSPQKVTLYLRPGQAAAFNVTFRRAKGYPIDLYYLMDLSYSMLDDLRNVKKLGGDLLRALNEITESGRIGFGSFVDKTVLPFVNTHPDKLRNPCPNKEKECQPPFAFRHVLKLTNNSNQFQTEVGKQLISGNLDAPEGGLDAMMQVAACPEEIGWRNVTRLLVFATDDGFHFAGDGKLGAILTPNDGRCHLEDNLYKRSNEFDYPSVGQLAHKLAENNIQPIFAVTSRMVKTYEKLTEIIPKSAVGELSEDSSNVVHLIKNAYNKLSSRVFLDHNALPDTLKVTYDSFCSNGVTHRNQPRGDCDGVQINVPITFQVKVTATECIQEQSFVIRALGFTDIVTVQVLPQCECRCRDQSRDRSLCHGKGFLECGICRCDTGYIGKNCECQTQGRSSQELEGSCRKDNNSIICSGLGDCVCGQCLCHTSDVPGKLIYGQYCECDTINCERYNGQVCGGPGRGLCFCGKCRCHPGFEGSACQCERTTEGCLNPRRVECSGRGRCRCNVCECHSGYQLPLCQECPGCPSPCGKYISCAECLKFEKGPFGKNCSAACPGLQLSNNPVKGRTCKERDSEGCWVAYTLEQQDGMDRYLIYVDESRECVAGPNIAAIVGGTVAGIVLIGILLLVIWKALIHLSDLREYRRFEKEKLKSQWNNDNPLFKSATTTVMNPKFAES

- % inhibition of THP-1 cell binding to KIM127: 40%
Substance: recombinant MMP-9 C-terminal hemopexin-like domain (Asp494-Asp688) (from UniProt P14780 513-707)
